Values quoted from earlier work in US5977174A, “Cholinergic compositions and uses thereof” (Neuromedica, Inc., priority 1997, dated 1999).

B1: C84S tPA: tPA variants in which a cysteine at position 84 of the growth factor domain of native tPA is replaced by serine (protein, UniProt P00750 36-562, looked up, variant C84S)
Tissue-type plasminogen …: SYQVICRDEKTQMIYQQHQSWLRPVLRSNRVEYCWCNSGRAQCHSVPVKSCSEPRCFNGGTCQQALYFSDFVCQCPEGFAGKCSEIDTRATCYEDQGISYRGTWSTAESGAECTNWNSSALAQKPYSGRRPDAIRLGLGNHNYCRNPDRDSKPWCYVFKAGKYSSEFCSTPACSEGNSDCYFGNGSAYRGTHSLTESGASCLPWNSMILIGKVYTAQNPSAQALGLGKHNYCRNPDGDAKPWCHVLKNRRLTWEYCDVPSCSTCGLRQYSQPQFRIKGGLFADIASHPWQAAIFAKHRRSPGERFLCGGILISSCWILSAAHCFQERFPPHHLTVILGRTYRVVPGEEEQKFEVEKYIVHKEFDDDTYDNDIALLQLKSDSSRCAQESSVVRTVCLPPADLQLPDWTECELSGYGKHEALSPFYSERLKEAHVRLYPSSRCTSQHLLNRTVTDNMLCAGDTRSGGPQANLHDACQGDSGGPLVCLNDGRMTLVGIISWGLGCGQKDVPGVYTKVTNYLDWIRDNMRP
  in vivo half life vs native tPA: longer in vivo half life than native tPA
